Measured values reported in patent US20240368250A1 (Ablynx, published 2024).
Like-named read-outs stand apart in the source and are kept apart here.

What was measured:
[1] = molecular target: T1, Human FcRn (biotinylated human FcRn) (human, UniProt P61769 21-119); assay: SPR Biacore 8K+, biotinylated hFcRn on SA chip (~700 RU), pH 6.0, bivalent analyte fit (ka1)
T1 construct: Biotinylated human FcRn captured on a Series S Sensor Chip SA; also called human neonatal Fc receptor; hFcRn

[2] = molecular target: T1, Human FcRn (biotinylated human FcRn); assay: SPR Biacore 8K+, biotinylated hFcRn on SA chip (~700 RU), pH 6.0, bivalent analyte fit (KD1)
[3] = molecular target: T2, Human serum albumin (HSA; Sigma-Aldrich Cat No. A8763) (human, UniProt P02768 25-609); assay: SPR Biacore 8K+, HSA on C1 chip, pH 7.4, 1:1 fit
[4] = molecular target: T1, Human FcRn (biotinylated human FcRn); assay: SPR Biacore 8K+, biotinylated hFcRn on SA chip (~700 RU), pH 6.0, bivalent analyte fit
[5] = molecular target: T1, Human FcRn (biotinylated human FcRn); assay: SPR Biacore 8K+, biotinylated hFcRn on SA chip (~700 RU), pH 6.0, bivalent analyte fit (kd1)
[6] = molecular target: T3, Mouse serum albumin (MSA; Albumin Bioscience Cat No. 2601) (mouse, UniProt P07724 25-608); assay: SPR Biacore 8K+, MSA on C1 chip, pH 7.4, 1:1 fit (off-rate only)
[7] = molecular target: T2, Human serum albumin (HSA; Sigma-Aldrich …); assay: SPR Biacore 8K+, HSA on C1 chip, pH 7.4, bivalent analyte fit (ka1)
[8] = molecular target: T3, Mouse serum albumin (MSA; Albumin …); assay: SPR Biacore 8K+, MSA on C1 chip, pH 7.4, bivalent analyte fit (kd1)
[9] = molecular target: T2, Human serum albumin (HSA; Sigma-Aldrich …); assay: SPR Biacore 8K+, HSA on C1 chip, pH 7.4, bivalent analyte fit (kd1)
[10] = molecular target: T3, Mouse serum albumin (MSA; Albumin …); assay: SPR Biacore 8K+, MSA on C1 chip, pH 7.4, bivalent analyte fit (ka1)
[11] = molecular target: T2, Human serum albumin (HSA; Sigma-Aldrich …); assay: SPR Biacore 8K+, HSA on C1 chip, pH 7.4, bivalent analyte fit (KD1)
[12] = molecular target: T3, Mouse serum albumin (MSA; Albumin …); assay: SPR Biacore 8K+, MSA on C1 chip, pH 7.4, bivalent analyte fit (KD1)
[13] = molecular target: T1, Human FcRn (biotinylated human FcRn); assay: SPR Biacore 8K+, biotinylated hFcRn on SA chip (~500-600 RU), pH 6.0, bivalent analyte fit (KD1)
[14] = molecular target: T3, Mouse serum albumin (MSA; Albumin …); assay: SPR Biacore 8K+, MSA on C1 chip, pH 7.4, off-rate column
[15] = molecular target: T1, Human FcRn (biotinylated human FcRn); assay: SPR Biacore 8K+, biotinylated hFcRn on SA chip (~500-600 RU), pH 6.0, bivalent analyte fit (ka1)
[16] = molecular target: T2, Human serum albumin (HSA; Sigma-Aldrich …); assay: SPR Biacore 8K+, HSA on C1 chip, pH 7.4, off-rate column
[17] = molecular target: T1, Human FcRn (biotinylated human FcRn); assay: SPR Biacore 8K+, biotinylated hFcRn on SA chip (~500-600 RU), pH 6.0, bivalent analyte fit;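 note: analytes were Fc proteins binding to biotinylated human FcRn captured on a Series S streptavidin sensor chip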
[18] = molecular target: T1, Human FcRn (biotinylated human FcRn); assay: SPR Biacore 8K+, biotinylated hFcRn on SA chip (~500-600 RU), pH 6.0, bivalent analyte fit (kd1)
[19] = molecular target: T2, Human serum albumin (HSA; Sigma-Aldrich …); assay: SPR Biacore 8K+, HSA on C1 chip, pH 7.4, bivalent analyte fit (ka1); remark: listed apart in the source
[20] = molecular target: T2, Human serum albumin (HSA; Sigma-Aldrich …); assay: SPR Biacore 8K+, HSA on C1 chip, pH 7.4, bivalent analyte fit (kd1); remark: listed apart in the source
[21] = molecular target: T3, Mouse serum albumin (MSA; Albumin …); assay: SPR Biacore 8K+, MSA on C1 chip, pH 7.4, bivalent analyte fit (KD1); remark: listed apart in the source
[22] = molecular target: T3, Mouse serum albumin (MSA; Albumin …); assay: SPR Biacore 8K+, MSA on C1 chip, pH 7.4, bivalent analyte fit (ka1); remark: listed apart in the source
[23] = molecular target: T3, Mouse serum albumin (MSA; Albumin …); assay: SPR Biacore 8K+, MSA on C1 chip, pH 7.4, bivalent analyte fit (kd1); remark: listed apart in the source
[24] = molecular target: T2, Human serum albumin (HSA; Sigma-Aldrich …); assay: SPR Biacore 8K+, HSA on C1 chip, pH 7.4, bivalent analyte fit (KD1); remark: listed apart in the source

Binder	kon [1]	Kd [2]	ka2 [4]	kd2 [4]	koff [5]	Kd [13]	kon [15]	KD2 [17]	ka2 [17]	kd2 [17]	koff [18]	further results
T-0263-00_TP121 (antibody, human IgG1, kappa, Full-length IgG1 knob-in-hole with one C-terminal ALB23002-A (9GS) on chain 1) heavy 1: not shown heavy 2: EVQLVESGGGLVQPGGSLRLSCAASGFNIRDTYIHWVRQAPGKGLEWVARIYPTQGYTRYADSVKGRFTISADTSKNTAYLQMNSLRAEDTAVYYCSRWGGEGFYAMDYWGQGTLVTVSSASTKGPSVFPLAPSSKSTSGGTAALGCLVKDYFPEPVTVSWNSGALTSGVHTFPAVLQSSGLYSLSSVVTVPSSSLGTQTYICNVNHKPSNTKVDKKVEPKSCDKTHTCPPCPAPELLGGPSVFLFPPKPKDTLMISRTPEVTCVVVDVSHEDPEVKFNWYVDGVEVHNAKTKPREEQYNSTYRVVSVLTVLHQDWLNGKEYKCKVSNKALPAPIEKTISKAKGQPREPQVCTLPPSRDELTKNQVSLSCAVKGFYPSDIAVEWESNGQPENNYKTTPPVLDSDGSFFLVSKLTVDKSRWQQGNVFSCSVMHEALHNRFTQKSLSLSPG light: not shown	71000 M⁻¹ s⁻¹	2300 nM	1.8e-05 1/RUs	0.00036 s⁻¹	0.16 s⁻¹							Kd [3]: 76.4 nM; koff [3]: 0.00204 s⁻¹; kon [3]: 26700 M⁻¹ s⁻¹; koff [6]: 0.0385 s⁻¹
T-0263-00_TP123 (antibody, human IgG1, kappa, Full-length IgG1 knob-in-hole with two C-terminal ALB23002-A (9GS), one on each heavy chain) heavy 1: not shown heavy 2: EVQLVESGGGLVQPGGSLRLSCAASGFNIRDTYIHWVRQAPGKGLEWVARIYPTQGYTRYADSVKGRFTISADTSKNTAYLQMNSLRAEDTAVYYCSRWGGEGFYAMDYWGQGTLVTVSSASTKGPSVFPLAPSSKSTSGGTAALGCLVKDYFPEPVTVSWNSGALTSGVHTFPAVLQSSGLYSLSSVVTVPSSSLGTQTYICNVNHKPSNTKVDKKVEPKSCDKTHTCPPCPAPELLGGPSVFLFPPKPKDTLMISRTPEVTCVVVDVSHEDPEVKFNWYVDGVEVHNAKTKPREEQYNSTYRVVSVLTVLHQDWLNGKEYKCKVSNKALPAPIEKTISKAKGQPREPQVCTLPPSRDELTKNQVSLSCAVKGFYPSDIAVEWESNGQPENNYKTTPPVLDSDGSFFLVSKLTVDKSRWQQGNVFSCSVMHEALHNRFTQKSLSLSPGGGGGSGGGSEVQLVESGGGVVQPGGSLRLSCAASGFTFRSFGMSWVRQAPGKGPEWVSSISGSGSDTLYADSVKGRFTISRDNSKNTLYLQMNSLRPEDTALYYCTIGGSLSRSSQGTLVTVSSA light: not shown	63000 M⁻¹ s⁻¹	2400 nM	1.7e-05 1/RUs	0.00059 s⁻¹	0.15 s⁻¹							kon [7]: 37500 M⁻¹ s⁻¹; koff [8]: 0.0344 s⁻¹; koff [9]: 0.00253 s⁻¹; kon [10]: 61400 M⁻¹ s⁻¹; Kd [11]: 67.4 nM; Kd [12]: 560 nM
TPP-66150 (Fc fusion) chain 1: DVQLVESGGGVVQAGGSLSISCAASGGSLSNYVLGWFRQAPGKEREFVAAINWRGDITIGPPNVEGRFTISRDNAKNTGYLQMNSLAPDDTALYYCGAGTPLNPGAYIYDWSYDYWGRGTLVTVSSDKTHTCPPCPAPEAAGGPSVFLFPPKPKDTLMISRTPEVTCVVVDVSQEDPEVQFNWYVDGVEVHNAKTKPREEQFNSTYRVVSVLTVLHQDWLNGKEYKCKVSNKGLPSSIEKTISKAKGQPREPQVYTLPPCQEEMTKNQVSLWCLVKGFYPSDIAVEWESNGQPENNYKTTPPVLDSDGSFFLYSKLTVDKSRWQEGNVFSCSVMHEALHNHYTQKSLSLSLG chain 2: DVQLVESGGGVVQAGGSLSISCAASGGSLSNYVLGWFRQAPGKEREFVAAINWRGDITIGPPNVEGRFTISRDNAKNTGYLQMNSLAPDDTALYYCGAGTPLNPGAYIYDWSYDYWGRGTLVTVSSDKTHTCPPCPAPEAAGGPSVFLFPPKPKDTLMISRTPEVTCVVVDVSQEDPEVQFNWYVDGVEVHNAKTKPREEQFNSTYRVVSVLTVLHQDWLNGKEYKCKVSNKGLPSSIEKTISKAKGQPREPQVCTLPPSQEEMTKNQVSLSCAVKGFYPSDIAVEWESNGQPENNYKTTPPVLDSDGSFFLVSKLTVDKSRWQEGNVFSCSVMHEALHNRFTQKSLSLSLGGGGGSGGGGSGGGGSGGGGSGGGGSGGGGSGGGGSDLGKKLLEAARAGQDDEVRELLKAGADVNAKDYFSHTPLHLAARNGHLKIVEVLLKAGADVNAKDFAGKTPLHLAANEGHLEIVEVLLKAGADVNAQDIFGKTPADIAADAGHEDIAEVLQKAA						1160 nM	73900 M⁻¹ s⁻¹	6.37 M	3.02e-05 1/RUs	0.000192 s⁻¹	0.0859 s⁻¹	binding result [14]: binds; binding result [16]: binds
TPP-66177 (Fc fusion, Symmetrical IgG4 FALA Fc fusion without knob-in-hole mutations, two C-terminal ALB23002 via 35GS; also called symmetrical ALB23002 ISVD-Fc polypeptide) DVQLVESGGGVVQAGGSLSISCAASGGSLSNYVLGWFRQAPGKEREFVAAINWRGDITIGPPNVEGRFTISRDNAKNTGYLQMNSLAPDDTALYYCGAGTPLNPGAYIYDWSYDYWGRGTLVTVSSDKTHTCPSCPAPEAAGGPSVFLFPPKPKDTLMISRTPEVTCVVVDVSQEDPEVQFNWYVDGVEVHNAKTKPREEQFNSTYRVVSVLTVLHQDWLNGKEYKCKVSNKGLPSSIEKTISKAKGQPREPQVYTLPPSQEEMTKNQVSLTCLVKGFYPSDIAVEWESNGQPENNYKTTPPVLDSDGSFFLYSKLTVDKSRWQEGNVFSCSVMHEALHNHYTQKSLSLSLGGGGGSGGGGSGGGGSGGGGSGGGGSGGGGSGGGGSEVQLVESGGGVVQPGGSLRLSCAASGFTFRSFGMSWVRQAPGKGPEWVSSISGSGSDTLYADSVKGRFTISRDNSKNTLYLQMNSLRPEDTALYYCTIGGSLSRSSQGTLVTVSSA						1690 nM	51500 M⁻¹ s⁻¹	3.64 M	4.07e-05 1/RUs	0.000148 s⁻¹	0.0872 s⁻¹	kon [19]: 54300 M⁻¹ s⁻¹; koff [20]: 0.000776 s⁻¹; Kd [21]: 8.8 nM; kon [22]: 45900 M⁻¹ s⁻¹; koff [23]: 0.000404 s⁻¹; Kd [24]: 14.3 nM
